The series is described as follows: yeast display, Sf9 membrane polyspecificity reagent, FACS + sequencing; frameworks hold sequencing errors. The method in brief: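 Polyreactivity labels are assigned by the sorting gate from which each nanobody was recovered. The gates were low and high (top ~1%), set on anti-HA fluorescence for expression and streptavidin fluorescence for reagent binding. Before sorting, galactose-induced (36–48 hours) yeast display cells were stained for 1 hour at 4 °C with 10% biotinylated, detergent-solubilized Sf9 membrane reagent.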
“QVQLVESGGGLVQAGGSLRLSCAASGFTFGSYAKGWYRQAPGKERELVAAIRASGGRTYYADSVKGRFTISRDNAKNTVFLQMNSLKPEDTAVYYCAADTGGNPKYDYWGQGTQVTVSS”: the “polyreactivity (PSR sort gate)” value was “high polyreactivity”.

As to “QVQLVESGGGLVQAGGSLRLSCAASGSIFLGYAMGWYRQAPGKERELVAAITSGGSTNYADSVKGRFTISRDNAKNTVYLQMNSLKPEDTAVYYCAAKGEWSLVYTDYDYWGQGTQVTVSS”, the “polyreactivity (PSR sort gate)” value was “low polyreactivity”.

As to “QVQLVESGGGLVQAGGSLRLSCAASGRISSANAMGWYRPAPGKERELVAAITWSGGSTYYADSVKGRFTISRDNAKNTVYIQMNSMKQEDTAVYYCAAESSAYGGGTSDAGYESDYWGQGTQVTVSS”, the “polyreactivity (PSR sort gate)” value is recorded as “low polyreactivity”.

Regarding “QVQLVESGGGLVQAGRSLRLSCAASGGLFQKYPMGWYRHAPGKERELVAAISGSGGRTYYADSVKGRFTISRDNAKNTVYLQMNTLKPEDTEVYYCAATLNRYGYDYWGQGTQVTVST”, the “polyreactivity (PSR sort gate)” value is given as “high polyreactivity”.

As to “QVQLVESRGGLVQAGGSLRLSCAASGRIFRYNAMGWYRQAPGKERELVAAITWSGVSTYYADSVKGRFTISRDNAKNTGYLQMNSLKPEHTAVYYCNARRWPAWSSDDYWGQGTQVTVSS”, the “polyreactivity (PSR sort gate)” value is “high polyreactivity”.

Turning to “QVQLVESVGGLVQAGGSLRLSCAGSGSTFGRYTMGSSRQAPVKEREFVAAIRWSGGNTYYADTVKGRFTISRGKAKNTVYLQMNSLKTEDTAVFYCNRVYSTIGDYWGQGTQVTVSS”, the “polyreactivity (PSR sort gate)” value was “low polyreactivity”.

For “QVQLVESGGGLVQAGGSLRLSCAASGSTFFQYAMGWYRPAPGKERELVAAITTSGGRTYYADSVKGRFTISRDNAKNTVYLQMNSLKPEDTAVYYCAGYNYWGQGTQVTVSS”, the “polyreactivity (PSR sort gate)” value is reported as “high polyreactivity”.

For “QVQLVESGGGLVQAGGSLRLSCAASGLTFGPYAMGWYRQAPGKERELVAAITSGGNTNYADSVKGRYTISRDNAKNTVYLQMNSLKPEETAVYYCATSYYLAYRSITPYDYWGQGTQVTVSS”, the “polyreactivity (PSR sort gate)” value is given as “low polyreactivity”.

“QVQHVESGGGLVQAGGSLRLSCAASGSIFYYYAMGWYRQAPGKERELVATISSSSGSTYADSVKGRFTISRDNAKNTVYLQMNSLKPEDTAVYYCAKDYWGQGTKVTVSS”: the “polyreactivity (PSR sort gate)” value is recorded as “low polyreactivity”.

In the case of “QVQLVESGGCLVQAGGSLRLSCAASGGTFRGYAMGWYRQAPGKETELVAASSTSGSRTSYADSVKGRFTISRDNAKNTVYLQMNSLKPEDNAVYYCNADPIHGVYSRFRLGGYWGQGTQVTVSS”, the “polyreactivity (PSR sort gate)” value is “high polyreactivity”.

Consider “QVQLVESGGGLVQAGGSLRLSCAASGRIFVVYVMGWYRQATGKEREFVAAITWGGGNTYYADSVKGRFTISRDNAKNTVYLQMNSLKPEDTAVYYCAAAPRKYVWMDYWGQGTQVTVSS”, for which the “polyreactivity (PSR sort gate)” value was “low polyreactivity”.

Take “QVQLVESGGGLVQAGGSLRLSCAASGFIFQWYAMGWYRQAPGKERELVAAISIGDSTYYADSVKGRFTISRDNAKNTVYLQMNSLKPADTAVYFCNADPWGYYSVIPLYEYDYWGQGTQVTVSS”: the “polyreactivity (PSR sort gate)” value was “low polyreactivity”.

With “QVQLVESGGGLVQAGGRLRISFAATGITSGRYAMGGYRQAPGNERELVAAISNSGGSTYYADSVKGRFTISRDNAKNTVYLQMNSLKPEDTAVYYCAARSASSRMDYWGQGTQVTVSS”, the “polyreactivity (PSR sort gate)” value is listed as “high polyreactivity”.

With “QVQLVESGGGLVQAGGSLLLSCAASGSIFQQYAMGGSRQAPGKERDLVAAISWGDGSTYYADSVKGRFTISRDNAKNTVYLQMNSLKPEDTAVYYCNAYASAPLWSLEDDYWGKGTQVTVSS”, the “polyreactivity (PSR sort gate)” value is listed as “low polyreactivity”.

As for “QVQLEESGGGLVQAGGSLRISCSASGFNFRYYTMGWYRQAPGKERELVAAITSRGGSTYYADSLKGRFTISRDIAKNTVYLQMNSLKPEDTAVYYCATTSWGYEYWGQGTEVTVSS”, the “polyreactivity (PSR sort gate)” value was “high polyreactivity”.

For the sequence “QDHLVESGGGLVQAGGSLRLSCAASGNIIWWNAMGWYRQAPGKERELVAAITSDSTTYYADSVKGRFTISRDNAKNTVYLQLNSLKPEDTAVYYCAAYSYGGQGVDYGYWGQGTQVTVSS”, the “polyreactivity (PSR sort gate)” value is reported as “low polyreactivity”.

For “QVQLVESGGGLVHAGGSLRLSCAASGRIYYFNAMGWYRQAPGKERELVATITYIGGSTHYADSEKGRFTISRDNAKNTVYLQMNSLKPEVTAVYYCAVRDGKDTDTYWYGYWGQGTQVTVSS”, the “polyreactivity (PSR sort gate)” value is “low polyreactivity”.

“QVQLVESGGGLVQAGGSLRLSCAASGRIFYSNTMGWYRQAPGKERELVARIDTGGGSTYADSVKGRFTISRDNAKNTVYLQMNSLKPEDTAVYYCAKTIAVNTWYYYWGQGTQVTVSS”: the “polyreactivity (PSR sort gate)” value is “low polyreactivity”.

As for “QVQLVESGGGLVQAGGSLRLSCAASGSIYYWYTMGWYRQAPGKERELVAAISLSDGRTYYADSVKGRFTISRDNAKNTVYLQMNSLKPEDTAVYYCAADYRDASGYYRYDYWGQGTQVTVSS”, the “polyreactivity (PSR sort gate)” value was “low polyreactivity”.

“QVQLVDSGGGLVQAGGSLRLSCAASGLTFSKYAMGWYRQAPGKERELVSAISRSGGSTYYADSVKGRFTISRDNAKNTVYLQMNSLKPEDTAVYYCAARRLVGAERPGYDYWGQGTQVTVSS”: the “polyreactivity (PSR sort gate)” value was “high polyreactivity”.

“QVQLVESGGGLVQTGGSLRLSCAASGRIFKHYAMGWYTHAPGKERELVAAITNGGRTNYSDSVKGRFTISRDNAKNTVYLQMNSLKPEDTAVSYCARDRKIAYLSEGFDYWGQGTQVSVSS”: the “polyreactivity (PSR sort gate)” value was “low polyreactivity”.

Take “QVQLVESGGGLVQAGGSLRLSCAASGSTFVSNTMGWYRQAPGKERELVAAITWGGGGTYYADSVKGRFTISRDNAKNTVYLQMNSLKPEDTAVYYCAAKVQGGYYDYDYWGQGTQVTVSS”: the “polyreactivity (PSR sort gate)” value is given as “low polyreactivity”.

Regarding “QVQLVESGGGLVQAGGSLRLSCAASGLTFYYYAMGWYRQAPGKERELVAAISSVGSTYYADSVKGRFTISRDNAKNTVYLQRNSLKPEDTAVYYCAAKSYWWHEDYWGQGTQVTVSS”, the “polyreactivity (PSR sort gate)” value was “low polyreactivity”.

Consider “QVQLVESGGGLVQAGGSLRLSCAASGGIYYYAMGWYRQAPGKERELVAAISSGGGNTNYADSVKGRFTLSRDNAKNTVYLQMNSLKPEDTAVYYCATDGFIPTYSYTEIGYDYWGQGTQVTVSS”, for which the “polyreactivity (PSR sort gate)” value was “low polyreactivity”.

Consider “QVQLVESGGGLVQAGGSLRLSCAASGSIFFPYAMGWYRQAPGKERELVAAITRSGGRTYYADSVKGRFTISRDNAKNTVYLQMNSLKPEDTAVYYCAAGPWYNFYDSRPWFSYDYWGQGTQVTVSS”, for which the “polyreactivity (PSR sort gate)” value was “low polyreactivity”.

With “QVQLVESGGGLVQAGGSLRLSCAASGGTFTYYAKGWYRQAPGKERELVAAISWSDTSTYYADSVKGRFTISRDNAKNTVYLQMNSLKPEDTAVYYCAAEFYVRYQADYEYWGQGTQVTVSS”, the “polyreactivity (PSR sort gate)” value is “high polyreactivity”.

On to “QVHLVESGRGLFQAGGSLRLSCAASGSIFGYNAMGWYRQAPGKERELVAAITWRGGSTYYADSVKGRFTISRDNAKNTVYLQMNSLKPEDTAVYDCAAYVYQEYDYWGQGTQVTVSS”, for which the “polyreactivity (PSR sort gate)” value is listed as “high polyreactivity”.

Consider “QVQLVESGGGLVQAGGSLRLSCAASGSIFDENAMGWYRQAPGKERELVAAITSTDSTNYADSVKGRFTISRDNAKNTVYLQMNSLKPEDTAVYYCARDIKHATSYEALYYSDYDYWGQGTQVTVSS”, for which the “polyreactivity (PSR sort gate)” value is recorded as “low polyreactivity”.

For the sequence “QVQLVESGGGIVQAGGSLRLSCAASGFNFSLYAMGWYRQAPGKERELVAVIDRRGGNTYYADSVKGRFTISRDNAKNTVYLQMNSLKPEDTAVYSCAADRRFHYDYWGQGTQVTVSS”, the “polyreactivity (PSR sort gate)” value is “high polyreactivity”.

In the case of “QVHLVESGGGLVQAGGSLRLSCAASGYIFRWYAMGWYRQAPGKEREFVASISKRGGSTYYADSVKGRFTISRDNAKNTVYLQMNSLKPEDTAVYYCARTPSPLLYSYDYWGQGTQVTVSS”, the “polyreactivity (PSR sort gate)” value was “high polyreactivity”.

On to “QVQLVESGGRLVQAGGSLRLICAASGFTFWYYAIGWYRQAPGKESEFVASISWNGGRTYYADSVKGRFTISRDNAKNTVYLQMNSLKPEDTAVYYCATRVIYSFTDFKGDYWGQGTQVTVSS”, for which the “polyreactivity (PSR sort gate)” value is recorded as “high polyreactivity”.

For “QVQLVESGGGLVQAGGSLRLSCAASGSIFKPYAMGWYRQAPGKERELVARISWSTGRTYYADSVKGRFTISRDNAKNTVYLQMNSLKPEDTEVYDCDAAVAVRYGYWGQGTQVTVSS”, the “polyreactivity (PSR sort gate)” value is reported as “high polyreactivity”.

For the sequence “QVQLVESGGGLVQAGGSLRLSCAASGRIFGTYTMGWYRQAPGKERELVAAISRNGGSTYYADSVKGRITISRDNAKNTVYLQMNSLKPEDTAVYYCNAERRDDRGFDYWGQGTQVTVSS”, the “polyreactivity (PSR sort gate)” value was “low polyreactivity”.

For the sequence “QVQLVESGGGLLQAGGSLRLSSAASVRIFPSYAMGWYRQARGKEREFVAAITRGGASTYYADSVKGRFTISRDNAKNTVYFEMNSLKPEVTAVYYCAKDAYRYGGFSWTTGMDYWGQGTQVTVSA”, the “polyreactivity (PSR sort gate)” value was “high polyreactivity”.

Consider “QVQLVESGGGLVQAGGSLRLSCAASGSTFVSYDMGWYRQAPGKERELVATIRRGGSTYYADSVKGRFTISRDNAKNTVYLQMNSLKPEDTAVYYCAAQQYAKYGWYAYDYWGQGTQVTVSS”, for which the “polyreactivity (PSR sort gate)” value is recorded as “low polyreactivity”.

With “QVQLVESGGGLVQAGGSLRLSCAASGRIFVDYAMGWYRQAPGKERELVAAITRSGDRTYYADSVKGRFTISRDNAKNTVYLQMNSLKPEDTAVYYCATDYPGYDWGQGTQVTVSS”, the “polyreactivity (PSR sort gate)” value is listed as “low polyreactivity”.

Regarding “QVQLVESGGGIVQAGGSLRLSCAASGNTFYAYTMGWYRPAPGKERELVAAISSDGSTNYAVSVKGSVTISRDHAKNTVYLQLNCLKPEDTAVYYCAKYTSSRFEYDYWGHGTQVTVSS”, the “polyreactivity (PSR sort gate)” value is listed as “low polyreactivity”.

On to “QVQLVESGGGLVQAGGSLPLSCAASGATFTFYTMRSYRQAPGKERELVATISWRGGNTYYADSVKGRFTISRDNAKNTVYLQMNSLKPEDTAVYYCNAAPYRRGYGFREYDYWGQGTQVTVSS”, for which the “polyreactivity (PSR sort gate)” value is “high polyreactivity”.

Consider “QVQLVESGGGLDQAGGSLRLSCAASGSIIGIYAMGWYRQAPGKERELVAAISWSGGSTYYADSVKGRFTISRDNAKNTVYLQMNSLKPEDTAVYYCAARGHYQYYWGQGTQVTVSS”, for which the “polyreactivity (PSR sort gate)” value was “low polyreactivity”.

On to “QVQLVESGGGLVHAGGSLRLSCAASGNTFIRYAIGWYRQARGTQRELVASITKRCGSTYYADSVKGRFTISRDNAKNTVYLQMNCLKPEDTAVYYCDRGPSGTPIGNTPYGDNRYNSWGEGTQVTVSS”, for which the “polyreactivity (PSR sort gate)” value is listed as “low polyreactivity”.

Take “QVQLVESGGGLVQAGGTLRLSCAASGSILGGNAMGWYRQAPGKERELVAAITFSGGGTYYADSVKGRFTISRDNAKNTVYLQMNSLKPEDTAVYYCAADKDGYTYEFDYWGQGTQVTVSS”: the “polyreactivity (PSR sort gate)” value is on record as “low polyreactivity”.

Values taken from the nanobody polyreactivity screen of Harvey et al. (2022).
